# From the supplement of paper PMC9170038
# System: K4 kissing-loop RNA reporter
# Test: apparent KD of K4 kissing-loop reporter; higher = weaker reporter binding
# Settings: Eterna round: R107
# Protocol: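 RNA-MaP round R107: designed RNA switches with theophylline, tryptophan, arginine or FMN aptamers are transcribed on-chip within common flanks. They are titrated with a labelled K4 kissing-loop RNA reporter in RNA-MaP buffer (100 mM Tris pH 7.5, 80 mM KCl, 4 mM MgCl2), without ligand or with the indicated ligand. Median apparent KD per design.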
# [1] = input ligand: theophylline 20 uM
# [2] = input ligand: tryptophan 2.4 mM
# 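Further: bound reporter read as fluorescence of individual clusters on recovered sequencing chips by microscopy, with normalized cluster intensities fitted with a binding model.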
Sequence,apparent KD of K4 kissing-loop reporter (input ligand: FMN 200 uM) [nM],apparent KD of K4 kissing-loop reporter (input ligand: arginine 13.2 mM) [nM],apparent KD of K4 kissing-loop reporter (input ligand: none) [nM],apparent KD of K4 kissing-loop reporter [1] [nM],apparent KD of K4 kissing-loop reporter [2] [nM]
GCAACAUUGGCAGGAUAUCCUUCUCAGUGAUGUUGAGGGUUCAGCUAACGAAAGUUAGUUGUACCGGGAGAAGGGCUAAUGUUGC [Omei KL FMN B SS A v8],288,650,1100,913,1240
UGUGUUUACCUGACUCAGUGAUGUUGAGAAGGAGCGUGAGAAGGCACAGGUAGGUCGCUCAACCUAAAUUCAGGUGAGCACUAAA,134,188,173,193,142
UUAGAUCAAAGAUCAGUCUUAUGGAGGGAACGAGGACCGGUACGGCCGCCACUCGAGUGAUGUUCGAGAACCCUCGUGACAAAUU [AK4 EXC Tryptophan A],196,146,189,164,297
UCUCCAGUGAUGUUGGAGACGGAUGAGGAAGGAGCGGGCACGUGCCCAGGUAGGUCGCCUCGAAAGCCCUGUAGCAUCGCGAAAC [Disoribe],281,188,203,193,149
AGGAUCCGUCGACAAAAGUCGACAUAAUCCAAGGAUAUGACGAAAGUCAGAAGGUGGACAUAAGUCCAGUGAUGUUGGAGGAUCC [FmnA 16 #SwitchBubble #K4Late],766,283,427,557,351
UUUCGUUUCGUCUGACAUAAUUGGCUAGAAGGAGCGGUAAAAUUACCAGGUAGGUCGCUAGCCCAGUGAUGUUGGGACUAGCGUA [Edries],124,107,114,116,125
CGCAGUGAUGUUGCUAUUAUUCUUGAUUAACGAGGACCGGUACGGCCGCCACUCGGUUUCUAUCUGAUCCAGCGUUUUGUUGAGU [#23 K4 Tryptophan A Exclusion],474,562,638,620,335
UAAGAAUAAGUAGCAGUGAUGUUGCUACUGCGAGGACCGGUACGGCCGCCACUCGAGUCCUCGAAACAUCACUGAACGAGGAAUA [whbob_SS_Tryp_A_m11],298,190,193,319,270
UUUGUAUAGGGAAGGAGCGUGAAUGAUAAUGAAUAUAGUGAUGUUAUAUAUAAGAAAGAAUCACAGGUAGGUCGCCCGGAUGAGU [SSArgB.L],432,323,477,447,356
CCAGUUUGAGUGAUGUUCAGGCAUUGGUACGAGGAUAUCGAGGAGUUGAGAAGGCGUACUACUCAACUAUGUAUGAAUACAUACC [FMN A Ex t2],224,89,125,126,116
AAGGGCGGGACUUUCUCGCCGGAUAGAGAUACCAGCCCAGCAAUGGGCCCUUGGCAGCUCACUGACCUCAGUGAUGUUGAGGUUC [Quintege],310,214,213,208,185
UGGACAUGACUCGAUAAGAGUCAAUGAGAUACCAGUGACGAAAGUCACCCUUGGCAGCUCAACUGCCAGUGAUGUUGGUAGUCCU [#SwitchBubble #StaticStem],739,424,742,793,566
AUGCUUUUAAUAACACUAUAUACAGCUGAAGGAGCGACAAUAAAGUCAGGUAGGUCGCAGAAUAGAUGAGUGAUGUUCAUUUUUA [#05 K4 Arginine A Exclusion],92.8,178,118,166,76.9
AGGAUGUAGUGAUGUUAUAUAAGAAGUAAACGAGGACCGGUACGGCCGCCACUCGAAGCGGCUACUAGCGCGUUGCGAGGUGCGC [ExTryptoA.Cc],391,451,372,370,286
AAUGCAUAGUGAAGGAGCGCGAUAAGCAGUGAUGUUGCUUAGCUAUUAUUCAUUUUUUUAACGCAGGUAGGUCGCACUUUGCAUA [JR_ExcArginiB_Sub016],166,142,135,148,144
AAAAUAAGCCAGUGAUGUUGGGAUCCAGAUACCAGCGACGAAAGUCGCCCUUGGCAGCUGUGGACGUACAAAAUAAGUACGUCCU,924,706,1040,927,992
UGUAUUUCGGCGGCCGCCACUGACCAUAGCCUUCGAUGGCCAGUGAUGUUGGCCUCUGGCUCUAACAGGACCGGGCCGAAUUGCG [Usvediin],303,165,190,168,132
AGACUUCACCGAAGGAGCGACGUAGCCUAGUGAUGUUAGGCACGAGAGAAAUCUCGUAUACGUCAGGUAGGUCGCGGUGAAGUCA [Omei KL Arginine B SS C v1],196,138,161,171,161
UUAUUAAUCACAGAUACCAGUCCAGAAUGAAUACUAUAGUGAUGUUAUAAUAAAGGGAAGGACCCUUGGCAGCUGUAAUAUAUUU [AstrosSsTheB#2],525,370,499,354,320
GAUAAAUUGAUGCGUAGUGAUGCACGGGAAGGAGCGCGUUUUUUCGCAGGUAGGUCGCCCGACUGCGCGUUUCGAGUGAUGUUCG [5.)],192,198,193,197,172
UAAGAGGACCACUACAAGAGUCCUCGAAUACGAGGACCGGUACGGCCGCCACUCGAUAACUUGUAGUGAUGUUGCAAGUAAGAAU [BrourdMod 2 - Jieux - Same State Tryptophan A],80.4,85.6,85.3,97.4,46
GCAACAUUGGCAGGAUAUCAUUCUGAGUGAUGUUCAGGGUUCAGCUAACGAAAGUUAGUUGUACCAUGAGAAGGGCUAAUGUUGC [Omei KL FMN B SS A v1],332,886,1120,1020,1080

Sequence,apparent KD of K4 kissing-loop reporter (input ligand: FMN 200 uM) [nM],apparent KD of K4 kissing-loop reporter (input ligand: arginine 13.2 mM) [nM],apparent KD of K4 kissing-loop reporter (input ligand: none) [nM],apparent KD of K4 kissing-loop reporter [1] [nM],apparent KD of K4 kissing-loop reporter [2] [nM]
AAGCCAGAGAUUGCUGCGGGUUCCAGAGAUACCAGCCGUAUUGAAGGCCCUUGGCAGCUCGAGUGAUGUUCGAGCCGUCUCUAGC [Bisore],126,101,124,123,110
GUAUACAUAGAUCACCUUGUAGUGAUGUUGCGAGGACCGGUACGGCCGCCACUCGAAGUACGAAAGUACAAAGAUCUAUGUAUAC [Exclusion Trypto A - 1],251,131,258,136,45.9
AAAUAAAUCAGAGGAUAUUCUUCCCACGUCGAAGUACCGUGCUUGAUGGAGUGAUGUUCGAUCAGAGAAGAAGGCUGAUAAAUAA [Same State FMN B GF 19],732,395,917,621,338
AACACUCACGGAGUGAUGUUCUGGAAUAAACGAGGACCGGUACGGCCGCCACUCGAAAAUGAGUGAGUCCUACGAAAAGUAGGAC [Omei inspired 4],357,394,361,405,108
AAAUAAGCUCAUGAUACCAGCCAGUGAUGUUGGUUGGUCCACCGUGUCCGAACAUUAAGCGGCCCUUGGCAGCAUGAUGCGCGUA [Xearxea],125,98.5,90.1,119,118
AAGUUUUAUAAACUCAUGGUUUCGUCAGAUACCAGCCUCGAGAGAGGCCCUUGGCAGCUGCAUGAGUGAUGUUCAUGUUCGAAGA [KL_XTheoA8],253,260,374,239,251
GGAUAGGAUAGAGGAUAUGGCUUACACAGAAAUAACUUGUUGUGUUUAUCCAUAGGGAGUGAUGUUCCAGAAGGCUGUCCUAUCG [MatMod 19 - Jieux - Exclusion - FMN B],743,197,210,232,161
GCCGUACGCAUGGAUACCAGCCGACCUGAUGUUAAGCUGGUGCCGUAGUGAUGUUACGAAGGCCCUUGGCAGCCAUGCGUACGGC,211,147,209,176,196
CAAACGUGCGGUAGGUUCAAGCGCUGGGAAGGAGCGCAGAUGACUGCAGGUAGGUCGCCCAGUGAUGUUGGGCUUUCCACCUACG [Dilausma],138,123,119,138,99.9
UAUUAAGUGACGGCCGCCACUAUGGUGAUUUAUUUGUUUGAGUGAUGUUUUGAUGUUUGAUUUUGUAGGACCGGGUUAUGUGUUA [ttttcmullin],969,641,735,752,597
GCAAAGGCCCAUCGGAAUUCGAGACCAGCACGAGGACCGGUACGGCCGCCACUCGUGCAGUGAUGUUGCACGAAUGGGAAACCGC [Oninanso],112,103,125,118,147
AUUAAUAUCACGGCCGCCACUGAAUAUUGUUUUUAUAUUUAGAAAUCUUGCCAGUGAUGUUGGAUCAGGACCGGGUGAGUUUAUA [JR_SSTryptoB_Sub006],613,439,463,424,444
UCUGGUAUAUCUGAUACCAGAGUAUAGUAUCAAUUGAAUAUGGAGUGAUGUUCCAUACAACUCCCUUGGCAGCAGAUCUUCCUCU [Same State Theophylline B GF 23],145,206,188,193,124
UAAUCCUAAUGAUAAUAAUCAAGUGGUGGACGAGGACCGGUACGGCCGCCACUCGAAAAUGCAGUGAUGUUGUAAUACGGAUAAU [Exclusion - Tryptophan A (Freestyle 3)],288,460,372,541,247
UACAUCGAGCAGAGUGAUGUUUUGUGCGAUACCAGCAAGUGCAAGUGCCCUUGGCAGCGCAAGCGGUUGUAUGUAGGACCGGACG [theeternabot_exclusion_KL_Theo_A_21],433,647,657,964,432
AAUAAAAUCACGGCCGCCACUGAAUAAUUACAAAGUAGUGAUGUUACUUUACAUAUCUUAUUUAACAGGACCGGGUGAAUAUUUA [JR_ExcTryptoB_Sub007],78.6,70.2,76.2,69.7,78.3
UGGAGUUGACGAAAAGUCAACUCCUGAGAUCGAGGACCGGUACGGCCGCCACUCGAGCUAACUGCGAGUGAUGUUCGAAAAUAAA [#OpenEnded 1 - Direct theophylline transfer],191,313,235,393,97.1
GGAGAGGUCUUGUUUGGAUGUGAUUAAUGGCGAGGACCGGUACGGCCGCCACUCGGGUGAUGUUAGUGAUGUUGAUGUAGUGAUG [uyumullin],150,103,114,206,109
AAAUAUAGUGAUGUUAUAUAUAUAUGUGAUACCAGAGAAAGAAAACUCCCUUGGCAGCACGAGAGAGAAUUUUUUUUUUAUAUAU [AstrosSSTheA#1],362,398,552,414,245
UCCUAGGCUCGAAAGAGCCUAGGAUGGACUCAGGAUAUCCGGAAACGGAGAAGGGAGUCACUAGUGAUGUUAGGGACUCCCUAAC,302,97.7,110,123,109
UGGAGUUGACGAAAAGUCAACUCCUGAGAUACCAGUGACGAAAGUCACCCUUGGCAGCUCACUGGCAGUGAUGUUGCUAUAUAAA [KL-SSTheo-A3],85.5,68.9,95.3,211,101
GGUAGCAUGGCGGCCGCCACUUUUACUGGAUCGGAAACGAUCCAGUAUUGUGUAGUGAUGUUACAAAGGACCGGGCCAUGCUACC,201,188,180,189,167
